The source of these data is CN115960228A (UNIV XUZHOU MEDICAL, dated 2023).

The target in this assay is T1, CD19 protein on the cell surface (细胞表面的CD19蛋白) (human, UniProt P15391 20-556).
T1 construct: whole, on cells; also called 人CD19
T1 sequence (looked up): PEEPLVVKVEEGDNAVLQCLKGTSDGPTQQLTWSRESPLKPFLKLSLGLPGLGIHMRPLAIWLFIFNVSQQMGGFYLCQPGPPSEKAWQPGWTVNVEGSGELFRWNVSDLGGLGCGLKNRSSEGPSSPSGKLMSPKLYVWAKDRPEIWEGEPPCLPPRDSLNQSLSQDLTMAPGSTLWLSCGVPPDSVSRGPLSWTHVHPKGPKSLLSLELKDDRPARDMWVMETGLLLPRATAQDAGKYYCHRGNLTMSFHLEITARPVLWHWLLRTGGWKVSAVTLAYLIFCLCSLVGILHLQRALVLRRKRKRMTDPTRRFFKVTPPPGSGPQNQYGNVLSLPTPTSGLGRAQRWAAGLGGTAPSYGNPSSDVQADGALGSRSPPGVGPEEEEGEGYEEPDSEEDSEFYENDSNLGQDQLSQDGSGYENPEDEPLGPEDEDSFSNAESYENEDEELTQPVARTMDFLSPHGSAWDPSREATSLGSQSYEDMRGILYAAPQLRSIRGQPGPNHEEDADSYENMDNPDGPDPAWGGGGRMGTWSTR
As to the kind of experiment: flow cytometry on cells; antibody purified from cell supernatant or ascites, compared with hybridoma supernatant.

B1: CD19-6E1B8抗体 (anti-human CD19 monoclonal antibody, clone 6E1B8) (antibody, V domains shown)
VH: EVQLKESGPGLVAPSQSLSITCTVSGFSLTSHGVSWVRQPPGKGLEWLGVIWGDGRTSYHSALISRLSISKSDSKSQVFLKLNSLQTDDTATYYCAKKGAYYGSDYRYYAMDSWGQGTSVTVSS
VL: DIQLTQTPLSLPVSLGDQASISCRSSQSLVYSNGNTYLHWYLQKPGQSPKLLIYKASNRFSGVPDRFSGSGSGTDFTLKISRVEAEDLGVYFCSQSTHVPWTFGGGTKLEIKR
notes: It was purified on Protein G from ascites or from cell supernatant; also called CD19抗体; 抗CD19的单克隆抗体
Take B1: the binding result is “binds”.
